Experimental findings from paper PMC11218997, “Human cytomegalovirus deploys molecular mimicry to recruit VPS4A to sites of virus assembly” (PLOS Pathogens, 2024) are described below.

Numbering of substitutions follows the chain as printed. In names and notes the source's numbering stands.

Assay [1] has as its system pUL71 (YN fusion, TB71-YN). The experiment in a line: Bimolecular fluorescence complementation in TB71-YN infected MRC-5 cells. It counts as cell-based, HCMV. The note with it: MRC-5 infected with TB71-YN, MOI 1, 5 dpi. From the text:
HCMV strains AD169 [92], Toledo [93], Merlin [94], VR1814 [95] and TB40/E [96] and two clinical isolates (isolates 19 and 20, kindly provided by C. Sinzger, Ulm University Hospital, Germany) were used in this study. This panel was chosen as it covers the most commonly used cell culture passaged strains and two isolates that grow highly cell associated. In addition, bacmid derived viruses were used. Reconstituted virus from bacterial artificial chromosome (BAC) clone TB40-BAC4 of the endotheliotropic HCMV strain TB40/E (accession number EF999921.1.) served as wild type virus (WT) in this study. Generation and propagation of recombinant viruses, TBstop71 and TBrev71 have been described elsewhere. […] The recombinant virus TB71-YN used for bimolecular fluorescence complementation (BiFC) assay, was generated by markerless BAC mutagenesis from BAC clone TB40-BAC4 by inserting the sequences corresponding to a (GGGGS)2-linker sequence, the c-myc-tag and the N-terminal fragment of the yellow fluorescent protein (YFP) variant Citrine, comprising amino acids 1–173 (YN), before the stop codon of the UL71 open reading frame. […]

Assay [2] has as its target T1, VPS4A MIT domain (residues 1–84) (human, UniProt Q9UN37 1-84).
T1 construct: human VPS4A, MIT domain, residues 1-84 of UniProt Q9UN37; cloned into pOPT3G with an N-terminal GST and a human rhinovirus 3C site; the tag was removed with 3C protease; also called VPS4 MIT domain; source: E. coli T7 Express lysY/Iq, purified (glutathione Sepharose, 3C cleavage, SEC); not shown: GST, N-terminal, cleaved
T1 sequence (looked up): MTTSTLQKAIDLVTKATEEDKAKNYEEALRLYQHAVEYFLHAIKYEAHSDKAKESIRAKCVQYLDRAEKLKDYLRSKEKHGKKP
In words: ITC; titrants (GST-pUL71, GST-CHMP6 or peptides) titrated into VPS4A MIT domain in the cell; 25°C; 50 mM HEPES pH 8, 100 mM NaCl, 0.5 mM TCEP; 19×2 μL or 12×3 μL injections; one-site binding model. Particulars: both partners purified. For orientation: Isothermal titration calorimetry measures the heat released or taken up as one component is titrated into another.

Assay [3] has as its target T2, VPS4A MIT domain (residues 1–84) (human, UniProt Q9UN37 1-84).
T2 chain: T1 sequence (looked up)
The experiment in a line: ITC.

B1: YC-VPS4A-FLAG: VPS4A-FLAG fused to the C-terminal half of Citrine (protein)
chain: MTTSTLQKAIDLVTKATEEDKAKNYEEALRLYQHAVEYFLHAIKYEAHSDKAKESIRAKCVQYLDRAEKLKDYLRSKEKHGKKPVKENQSEGKGSDSDSEGDNPEKKKLQEQLMGAVVMEKPNIRWNDVAGLEGAKEALKEAVILPIKFPHLFTGKRTPWRGILLFGPPGTGKSYLAKAVATEANNSTFFSVSSSDLMSKWLGESEKLVKNLFELARQHKPSIIFIDEVDSLCGSRNENESEAARRIKTEFLVQMQGVGNNNDGTLVLGATNIPWVLDSAIRRRFEKRIYIPLPEEAARAQMFRLHLGSTPHNLTDANIHELARKTEGYSGADISIIVRDSLMQPVRKVQSATHFKKVCGPSRTNPSMMIDDLLTPCSPGDPGAMEMTWMDVPGDKLLEPVVCMSDMLRSLATTRPTVNADDLLKVKKFSEDFGQES
modifications: left off: Citrine residues 156-239 with A206K (YC), N-terminal, kept | FLAG, C-terminal, kept
In the case of B1, the “Citrine fluorescence (BiFC)” value in assay [1] is reported as “Citrine fluorescence was detected”.

B2: YC-VPS4A-FLAG-L64D (protein)
chain: B1 chain with L64D
modifications: left off: Citrine residues 156-239 with A206K (YC), N-terminal, kept | FLAG, C-terminal, kept
As for B2, in assay [1], the “Citrine fluorescence (BiFC)” value is on record as “Citrine fluorescence was detected”.

B3: GST-CHMP6 MIM2 (domain or fragment, human, UniProt Q96FZ7 166-181, looked up)
chain: EQIELPEVPSEPLPEK
notes: human CHMP6 MIM2; pGEX4T2, annealed primers pGEX CHMP6 MIM2 fwd and rev; also called GST-tagged CHMP6 MIM2 motif; source: E. coli, purified following bacterial expression; not shown: GST, N-terminal, kept
In the case of B3, in assay [2], the Kd (commonly a measure of binding affinity in units of concentration) worked out at 5.54 µM; the dH is -2.37 kcal/mol; the stoichiometry N (as a rule, the number of molecules, sites or subunits per partner or assembly) is 0.84. In assay [3], this molecule had a dissociation constant (Kd) of 15.3 µM.
